Measured values as given in article doi:10.1101/2020.06.06.138305.

Target: His-tagged encapsulin from Thermotoga maritima (Thermotoga maritima)
Test: co-purification

stoichiometry N (mSOG molecules per nanocompartment): 7
Substance: ESig-tagged mini-Singlet Oxygen Generator (miniSOG)
